In patent publication US9212226B2, “Amino acid sequences directed against CXCR4 and other GPCRs and compounds comprising the same” (Ablynx N.V., priority 2008, dated 2015):
Marks after values point to notes of the source that are not given here.

B1: 237A6: Nanobody (VHH) raised against human CXCR4, SEQ ID NO: 248 (protein)
VHH: EVQLVESGGGLVQAGGSLRLSCAASGSIFSLNAMGWYRQAPGKQRELVAGITSSTSTYYADSVKGRFTISRDNTKNTVYLQMNSLKPEDTAVYYCNVDCPDYYSDYECPLEDRGQGTQVTVSS
modifications: Nanobody, Nanobody constructs or fragments thereof
B2: 237D1: Nanobody (VHH) raised against human CXCR4, SEQ ID NO: 249 (protein)
VHH: EVQLVESGGGLAQPGGPLRLTCEASGVIYSVNDMGWYRQAPGKQRELVAVITSGGGTNYVDSVKGRFTISGDNRKKTVYLQMNSLKPEDTAVYYCSIYYSSGISTLRSWGQGTQVTVSS
modifications: Nanobody, Nanobody constructs or fragments thereof
B3: 237D2: Nanobody (VHH) raised against human CXCR4, SEQ ID NO: 241 (protein)
VHH: EVQLVESGGGLVQPGGSLRLSCAASGFTFDDYAMSWVRQAPGKGLEWVSAISWNGGSTDYADSVKGRFTISRDNAKNTLYLQMNSLKSEDTAEYYCARDQGPFYSGTYYYTRQYGYRGQGTQVTVSS
modifications: Nanobody, Nanobody constructs or fragments thereof
B4: 238D2-20GS-238C5 (protein)
chain: EVQLVESGGGLVQTGGSLRLSCAASGFTFSSYAMSWVRQAPGKGLEWVSGIKSSGDSTRYAGSVKGRFTISRDNAKNMLYLQMYSLKPEDTAVYYCAKSRVSRTGLYTYDNRGQGTQVTVSSGGGGSGGGGSGGGGSGGGGSEVQLMESGGGLVQAGGSLRLACAASGFTFEDYAIGWFRKAPGKEREGVSCISGSDGSTTYADSVKGRFTISTDNAKNTVYLEMNSLKPEDTAVYYCAQQYGVGGRVVCPGPYEYDVWGQGTQVTVSS
modifications: Nanobody, Nanobody constructs or fragments thereof
B5: 238D2-10GS-238D2: bivalent Nanobody, 238D2 linked to 238D2 by a 10 amino acid GGGGS linker (protein)
chain: EVQLVESGGGLVQTGGSLRLSCAASGFTFSSYAMSWVRQAPGKGLEWVSGIKSSGDSTRYAGSVKGRFTISRDNAKNMLYLQMYSLKPEDTAVYYCAKSRVSRTGLYTYDNRGQGTQVTVSSGGGGSGGGGSEVQLVESGGGLVQTGGSLRLSCAASGFTFSSYAMSWVRQAPGKGLEWVSGIKSSGDSTRYAGSVKGRFTISRDNAKNMLYLQMYSLKPEDTAVYYCAKSRVSRTGLYTYDNRGQGTQVTVSS
modifications: Nanobody, Nanobody constructs or fragments thereof
notes: bivalent Nanobody, 238D2 linked to 238D2 by a 10 amino acid GGGGS linker
B6: 238D2-20GS-238B10 (protein)
chain: EVQLVESGGGLVQTGGSLRLSCAASGFTFSSYAMSWVRQAPGKGLEWVSGIKSSGDSTRYAGSVKGRFTISRDNAKNMLYLQMYSLKPEDTAVYYCAKSRVSRTGLYTYDNRGQGTQVTVSSGGGGSGGGGSGGGGSGGGGSEVQLVESGGGFVQAGGSLRLSCETSGRPLLGYTIAWFRQVPGKEREFVAYHRWSDGANLYADSVKGRFTISGHNAKNTVSLQMNSLKPEDTAVYYCAAARMTTSNDKEYLYWGQGTQVTVSS
B7: 238D4-20GS-238D4: bivalent Nanobody, 238D4 linked to 238D4 by a 20 amino acid GGGGS linker (protein)
chain: EVQLMESGGGLVQAGGSLRLSCAASGRTFNNYAMGWFRRAPGKEREFVAAITRSGVRSGVSAIYGDSVKDRFTISRDNAKNTLYLQMNSLKPEDTAVYTCAASAIGSGALRRFEYDYSGQGTQVTVSSGGGGSGGGGSGGGGSGGGGSEVQLMESGGGLVQAGGSLRLSCAASGRTFNNYAMGWFRRAPGKEREFVAAITRSGVRSGVSAIYGDSVKDRFTISRDNAKNTLYLQMNSLKPEDTAVYTCAASAIGSGALRRFEYDYSGQGTQVTVSS
modifications: Nanobody, Nanobody constructs or fragments thereof
notes: bivalent Nanobody, 238D4 linked to 238D4 by a 20 amino acid GGGGS linker
B8: 238B10: Nanobody (VHH) raised against human CXCR4, SEQ ID NO: 242 (protein)
VHH: EVQLVESGGGFVQAGGSLRLSCETSGRPLLGYTIAWFRQVPGKEREFVAYHRWSDGANLYADSVKGRFTISGHNAKNTVSLQMNSLKPEDTAVYYCAAARMTTSNDKEYLYWGQGTQVTVSS
modifications: Nanobody, Nanobody constructs or fragments thereof

Tests used:
CXCR4 [1] = target: T1, CXCR4 (Homo sapiens, UniProt P61073); assay: [125I]-CXCL12 competition binding on membranes from HEK293T cells transiently expressing CXCR4; settings: for Displacem. (%) of [125I]-CXCL12 at 0.5 μM: at highest test concentration of 0.5 μM (footnote a: no significant displacement); for displacement of specifically bound [125I]-CXCL12: purified ligands, highest Nanobody test concentration 0.5 μM; for Binding (binding efficiency, competition binding with [125I]-CXCL12): screening of Nanobody clone pools; for Binding (binding efficiency, competition binding with [125I]-CXCL12) / Displacem. (%) of [125I]-CXCL12 (maximal displacement), bivalent Nanobodies / pKi, [125I]-CXCL12, bivalent Nanobodies: membranes from HEK293T cells transiently expressing CXCR4; for Rel. potency, relative to monovalent 238D2: [125I]-CXCL12 displacement, potency relative to those of monovalent 238D2; for Displacem. (%) of [125I]-CXCL12 (maximal displacement), bivalent Nanobodies / pKi, [125I]-CXCL12, bivalent Nanobodies: mean ± S.E.M.
Description: (§1) HEK293T cells were maintained at 37° C. in a humidified 5% CO2, 95% air atmosphere in Dulbecco's modified Eagle's medium (DMEM) containing 2 mM L-glutamine, 50 IU/ml penicillin, 50 μg/ml streptomycin, and 10% (v/v) fetal calf serum. Jurkat cells were cultured in a humidified 5% CO2, 95% air atmosphere in a 1:1 mixture of Dulbecco's modified Eagle's medium (DMEM) and Ham's F12 medium containing 2 mM L-glutamine, 50 IU/ml penicillin, 50 μg/ml streptomycin, and 10% (v/v) fetal calf serum. […] [^125 I]-Labelling— Radiolabeling of Nanobodies with ^125I was performed using the Iodo-gen method (Pierce, Rockford, Ill.) according to the manufacturer's protocol. ^125I-labeled Nanobodies was separated from free iodine (>99%) using a Sephadex G-25 gel filtration column (Amersham Biosciences, Piscataway, N.J.). […] Competition Binding Assays— Membranes from HEK293T cells transiently expressing CXCR3 or CXCR4 were prepared 48 h after transfection as follows. Cells were washed and scraped from the cell culture dishes with ice-cold PBS containing 1 mm EDTA. The scraped cells were pelleted at 1500×g for 10 min at 4° C. The pellet was washed and then resuspended in ice-cold membrane buffer (15 mM Tris, pH 7.5, 1 mM EGTA, 0.3 mM EDTA, and 2 mM MgCl2). The cell suspension was homogenized by 10 strokes at 1200 rpm using a Teflon-glass homogenizer and rotor and further subjected to three freeze-thaw cycles using liquid nitrogen. Membranes were separated by centrifugation at 40,000 g for 25 min at 4° C. The membrane pellet was washed and resuspended in ice-cold Tris-sucrose buffer (20 mM Tris, pH 7.4, and 250 mM sucrose) and frozen in liquid nitrogen. The total protein was determined using a Bradford assay (Bio-Rad). […] Membranes were then harvested over polyethylenimine (0.5%)-treated Whatman GF/C filter plates and washed three times with ice cold binding buffer containing 500 mM NaCl. Plates were counted by liquid scintillation. Inositol Phosphate Accumulation Assay— 24 hours post transfection with pcDNA3.1-CXCR4 and pcDNA1-HA-mG {alpha} qi5 (see Verzijl et al, 2008 supra), 250.000 cells were seeded into 24-wells plates and labelled overnight using inositol-free minimal essential medium supplemented with 1 μCi myo-[2-^3H]-inositol. The next day, the cells were washed once to remove not incorporated myo-[2-^3H]-inositol. […] In agonist experiments, the cells were directly stimulated with test compounds and LiCl (10 mM) in assay buffer for 2 h at 37° C. The stimulation was stopped by aspirating the stimulation medium and adding ice-cold 10 mM formic acid. The accumulated inositol phosphates were isolated by anion exchange chromatography and counted by liquid scintillation. CRE Reporter Gene Assay— HEK239T cells were transfected with pCRE/β-galactosidase (Chen W, Shields T S, Stork P J S, Cone R D (1995) Anal Biochem 226:349-354) and plasmids (pcDEF3 or pcDNA3.1) encoding the indicated receptors. 40,000 transfected cells per well were seeded into 96 well plates and grown in DMEM supplemented with 10% fetal calf serum. The medium was replaced 32 h after transfection by serum-free DMEM supplemented with 0.5% bovine serum albumin and ligands as indicated. […] The β-galactosidase activity was determined by the measurement of absorption at 420 nm with a PowerwaveX340 plate reader (Bio-Tek Instruments Inc., Winooski, Vt.) after incubation with the assay buffer when the OD420 value for forskolin (3 μM) controls reached 0.4-0.6. Chemotaxis Assay— The chemotactic responsiveness of Jurkat 3D cells was assessed using ChemoTx™ plates (Receptor Technologies Ltd., Oxon, UK) in which a upper cell-containing compartment is separated from a lower chemoattractant-containing compartment by a polyvinylpyrollidone-free polycarbonate filter with 5-μm pores. Cells were harvested, washed and resuspended in RPMI containing 0.5% bovine serum albumin and then loaded to 150,000 cells per well in a volume of 25 μl into the upper compartment of the chemotaxis chamber.

CXCR4 [2] = target: T1, CXCR4; assay: [125I]-238D2 competition binding on membranes from HEK293T cells transiently expressing CXCR4; settings: for displacement of [125I]-238D2 from CXCR4: [125I]-238D2 3 nM; for Displacem. (%) of [125I]-238D2 at 0.5 μM: at highest test concentration of 0.5 μM (footnote a: no significant displacement; b: maximum not reached)
Description: as §1

CXCR4 [3] = target: T1, CXCR4; assay: [125I]-238D4 competition binding on membranes from HEK293T cells transiently expressing CXCR4; settings: for displacement of [125I]-238D4 from CXCR4: [125I]-238D4 3 nM; for Displacem. (%) of [125I]-238D4 at 0.5 μM: at highest test concentration of 0.5 μM (footnote a: no significant displacement; b: maximum not reached)
Description: as §1

T1 sequence (P61073 whole entry): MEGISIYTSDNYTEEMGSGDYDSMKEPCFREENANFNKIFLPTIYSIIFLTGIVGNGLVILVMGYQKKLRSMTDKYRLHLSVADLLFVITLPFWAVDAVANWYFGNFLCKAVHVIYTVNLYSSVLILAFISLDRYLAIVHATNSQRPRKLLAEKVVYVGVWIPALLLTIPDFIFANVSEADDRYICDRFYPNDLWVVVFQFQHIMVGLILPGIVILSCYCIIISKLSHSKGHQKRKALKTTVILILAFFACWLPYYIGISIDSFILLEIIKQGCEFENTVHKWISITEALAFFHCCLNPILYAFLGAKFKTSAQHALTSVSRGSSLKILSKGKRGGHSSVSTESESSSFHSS

Molecule | Displacem. (%) of [125I]-CXCL12 at 0.5 μM (CXCR4 [1]) | displacement of specifically bound [125I]-CXCL12 (CXCR4 [1]) | displacement of [125I]-238D2 from CXCR4 (CXCR4 [2]) | Displacem. (%) of [125I]-238D2 at 0.5 μM (CXCR4 [2]) | displacement of [125I]-238D4 from CXCR4 (CXCR4 [3]) | Displacem. (%) of [125I]-238D4 at 0.5 μM (CXCR4 [3]) | Rel. potency, relative to monovalent 238D2 (CXCR4 [1]) | Displacem. (%) of [125I]-CXCL12 (maximal displacement), bivalent Nanobodies (CXCR4 [1]) | pKi, [125I]-CXCL12, bivalent Nanobodies (CXCR4 [1]) | other results
B1 | 0^a % | unable to displace | unable to inhibit | 0^a % | unable to inhibit | 0^a % |  |  |  | Binding (binding efficiency, competition binding with [125I]-CXCL12) (CXCR4 [1]): + (+ = 30-69%)
B2 | 0^a % | unable to displace | unable to inhibit | 0^a % | unable to inhibit | 0^a % |  |  |  | Binding (binding efficiency, competition binding with [125I]-CXCL12) (CXCR4 [1]): + (+ = 30-69%)
B3 | 0^a % | unable to displace | unable to inhibit | 0^a % | unable to inhibit | 0^a % |  |  |  | 
B4 |  |  |  |  |  |  | 0.18^a | 110 ± 2% | 7.35 ± 0.07 | 
B5 |  |  |  |  |  |  | 14^a | 95 ± 5% | 9.16 ± 0.08 | 
B6 |  |  |  |  |  |  | <0.1^a |  | <7.00 | Displacem. (%) of [125I]-CXCL12 at 0.5 μM, bivalent Nanobodies (CXCR4 [1]; maximum not reached at the highest test concentration of 0.5 μM, displacement at 0.5 μM): 43 ± 11^c %
B7 |  |  |  |  |  |  |  | 96 ± 5% |  | 
B8 |  |  |  |  |  |  |  |  |  | affinity to CXCR4 (CXCR4 [1]; in words): inactive
